Experimental data as given in IntAct's records for PubMed 16377563.

Legend:
h2ax_human H2AX [1] = target: h2ax_human H2AX (UniProt P16104)
h2ax_human H2AX [2] = target: h2ax_human H2AX (UniProt P16104); remark: listed apart in the source
h2ax_human H2AX [3] = target: h2ax_human H2AX (UniProt P16104); remark: listed apart in the source

| effect of a mutation on the interaction (h2ax_human H2AX [1]) | effect of a mutation on the interaction (h2ax_human H2AX [2]) | effect of a mutation on the interaction (h2ax_human H2AX [3]) | Substance |
| --- | --- | --- | --- |
| disrupting interaction | decreasing interaction |  | Mediator of DNA damage checkpoint protein 1 (Homo sapiens), Q14676 K1936M |
|  |  | decreasing interaction | Mediator of DNA damage checkpoint protein 1 (Homo sapiens), Q14676 T1898V |
|  |  | disrupting interaction | Mediator of DNA damage checkpoint protein 1 (Homo sapiens), Q14676 R1933Q |
